Patent US20160222124A1 (published 2016)

Experiments:
Platelets Cynomolgus = target: T1, Platelets Cynomolgus (cynomolgus monkey, UniProt G7PG38 21-278); assay: flow cytometry, whole blood; cynomolgus platelets
T1 chain: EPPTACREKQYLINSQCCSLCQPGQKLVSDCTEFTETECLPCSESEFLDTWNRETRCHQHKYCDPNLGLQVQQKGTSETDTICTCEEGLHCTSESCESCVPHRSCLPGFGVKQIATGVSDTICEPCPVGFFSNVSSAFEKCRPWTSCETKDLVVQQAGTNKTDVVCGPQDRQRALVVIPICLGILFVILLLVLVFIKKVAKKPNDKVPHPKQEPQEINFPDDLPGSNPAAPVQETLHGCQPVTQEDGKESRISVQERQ

B cells Cynomolgus = target: T2, B cells Cynomolgus (cynomolgus monkey, UniProt G7PG38 21-278); assay: flow cytometry, whole blood; cynomolgus B cells
T2 chain: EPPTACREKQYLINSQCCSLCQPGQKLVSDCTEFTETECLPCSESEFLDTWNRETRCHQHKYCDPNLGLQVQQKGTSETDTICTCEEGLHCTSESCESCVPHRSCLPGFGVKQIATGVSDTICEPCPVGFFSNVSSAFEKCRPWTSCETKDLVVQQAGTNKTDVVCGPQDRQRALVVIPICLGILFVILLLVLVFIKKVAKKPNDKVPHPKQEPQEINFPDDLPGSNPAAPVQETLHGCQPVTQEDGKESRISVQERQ

Platelets Human = Platelets Human (human, UniProt P25942 21-277); assay: flow cytometry, whole blood; human platelets
B cells Human = B cells Human (human, UniProt P25942 21-277); assay: flow cytometry, whole blood; human B cells
human CD40 (cellular) [1] = target: T3, human CD40 (cellular) (human, UniProt P25942 21-277); assay: flow cytometry; CD40-transfected HEK-293 cells
human CD40 (cellular) [2] = target: T3, human CD40 (cellular); assay: flow cytometry; RAMOS cells; humanized per legend
Target sequence in this assay (P25942 21-277): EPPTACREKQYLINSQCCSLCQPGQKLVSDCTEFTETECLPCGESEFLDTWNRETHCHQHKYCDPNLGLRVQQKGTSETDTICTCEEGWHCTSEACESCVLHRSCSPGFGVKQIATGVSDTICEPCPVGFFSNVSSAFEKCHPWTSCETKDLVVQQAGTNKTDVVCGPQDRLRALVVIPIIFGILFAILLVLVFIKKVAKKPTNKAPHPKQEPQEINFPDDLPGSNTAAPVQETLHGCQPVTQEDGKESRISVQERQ

human CD40 (cellular) [3] = target: T3, human CD40 (cellular); assay: flow cytometry; CD40-transfected HEK-293 cells; humanized 19B10
human CD40 (cellular) [4] = target: T3, human CD40 (cellular); assay: flow cytometry; CD40-transfected HEK-293 cells; humanized 10F2

B1: 4D11 (antibody, V domains shown)
VH: QLQLQESGPGLLKPSETLSLTCTVSGGSISSPGYYGGWIRQPPGKGLEWIGSIYKSGSTYHNPSLKSRVTISVDTSKNQFSLKLSSVTAADTAVYYCTRPVVRYFGWFDPWGQGTLVTVSS
VL: AIQLTQSPSSLSASVGDRVTITCRASQGISSALAWYQQKPGKAPKLLIYDASNLESGVPSRFSGSGSGTDFTLTISSLQPEDFATYYCQQFNSYPTFGQGTKVEIK
Platelets Cynomolgus
  EC50: 1.2 nM
B cells Cynomolgus
  EC50: 0.7 nM
Platelets Human
  EC50: 0.7 nM
B cells Human
  EC50: 0.3 nM

B2: Antibody C (antibody, V domains shown)
VH: QVQLVQSGAEVKKPGASVKVSCTASGFNIKDYYVHWVKQAPGQGLEWMGRIDPEDGDSKYAPKFQGKATMTADTSTSTVYMELSSLRSEDTAVYYCTTSYYVGTYGYWGQGTLVTVSS
VL: DIQMTQSPSSLSASVGDRVTITCSASSSVSYMLWFQQKPGKAPKLLIYSTSNLASGVPSRFSGSGSGTDFTLTISSLQPEDFATYYCQQRTFYPYTFGGGTKVEIKR
Human CD40 (cellular) [1]
  EC50: 1.9 nM

B3: 19B10 (antibody, V domains shown)
VH: EVQLQQSGAELVRPGASVQLSCTASGFNIKDYYVHWVKQRPEKGLEWIGRIDPEDGDTKFAPKFQGKATMTADTSSNTVYLHLSSLTSEDTAVYYCTTSYYVGTYGYWGQGTTLTVSS
VL: QIVLTQSPAIMSASPGEKVTITCSASSSVSYMLWFQQKPGTSPKLWIYSTSNLASGVPARFSGSGSGTSYSLTISRMEAEDAATYYCQQRTFYPYTFGGGTKLEIK
Human CD40 (cellular) [2]
  EC50: 0.36 nM
Human CD40 (cellular) [3]
  EC50: 1.1 nM

B4: 10F2 (antibody, V domains shown)
VH: EVQLQQSGAELVRPGASVKLSCTASGFNIKDYYIHWVKQRPEKGLEWIGRIDPEDGDTKYDPKFQGKATMTADTSSNTAYLHLSSLTSEDTAVYYCTTSYYVGTYGYWGQGTTLTVSS
VL: QIVLTQSPTIMSASPGEKVIITCSATSSVSYILWFQQKPGTSPKLWIYSTSNLASGVPARFSGSGSGASYSLTISRMEAEDAATYYCQQRTFYPYTFGGGTKLEIK
Human CD40 (cellular) [4]
  EC50: 1.9 nM
Human CD40 (cellular) [2]
  EC50: 0.21 nM

B5: 2H11 (antibody, V domains shown)
VH: EVQLQQSGAELVRPGASVKLSCTASGFNIKDYYVHWVKQRPEKGLEWIGRIDPEDGDSKYAPKFQGKATMTADTSSNTAYLHLSSLTSEDTAVYYCTTSYYVGTYGYWGQGTTLTVSS
VL: QIVLTQSPAIMSASPGEKVTITCSASSSVSYMLWFQQKPGTSPKLWIYSTSNLASGVPARFGGSGSGTSYSLTISRMEAEDAATYYCQQRTFYPYTFGGGTKLEIK
Human CD40 (cellular) [2]
  EC50: 0.32 nM

B6: Antibody A (antibody, V domains shown)
VH: EVQLVESGGGLVKPGGSLRLSCAASGFTFSDYGMHWVRQAPGKGLEWVAYISSGNRIIYYADTVKGRFTISRDNAKNSLYLQMNSLRAEDTALYYCARQDGYRYAMDYWAQGTLVTVSS
VL: DIVMTQSPDSLAVSLGERATMSCKSSQSLLNSGNQKNYLTWHQQKPGQPPKLLIYWTSTRESGVPDRFSGSGSGTDFTLTISSLQAEDVAVYYCQNDYTYPLTFGGGTKVEIKR
Human CD40 (cellular) [1]
  EC50: 1.1 nM

B7: 20E2 (antibody, V domains shown)
VH: EVQLVESGGGLVKPGGSRKLSCAASGFTFSDYGMHWVRQAPEKGLEWVAYISSGNRIIYYADTVKGRFTISRDNAKNTLFLQMTSLRSEDTALYYCARQDGYRYAMDYWGQGTSVTVSS
VL: DIVMTQSPSSLTVTAGEKVTMSCKSSQSLLNSGNQKNYLTWHQQKPGQPPKLLIYWTSTRESGVPDRFTGSGSGTDFTLTISNLQAEDLAVYYCQNDYTYPLTFGAGTKLELK
Human CD40 (cellular) [2]
  EC50: 1.22 nM
